The source of these data is patent US5965725A, “Polypeptides, and preparation and DNA encoding thereof” (Seikagaku Kogyo Kabushiki Kaisha, priority 1994, dated 1999).

Common to all, as to type: cell-based
The subject of assay [1] is Escherichia coli. In words: Antimicrobial activity, growth inhibition at a single concentration (colony count). To be noted: 50 μl of 40 μg/ml polypeptide added to 450 μl of 10,000 CFU/ml suspension in 10 mM phosphate buffer pH 7.0; 37° C. 1 hr. How it is done: (§1) Escherichia coli was suspended in 10 mM phosphate buffer, pH 7.0, at a concentration of 10,000 CFU/ml and 450 μl of the suspension was mixed with 50 μl each of polypeptide fraction T3 (polypeptide of [Formula 4]) (SEQ ID NO:3), T6 (polypeptide of [Formula 5]) (SEQ ID NO:4), and a polypeptide obtained by Example 1 each having a concentration of 40 μg/ml, and as a control 10 mM phosphate buffer, pH 7.0. The mixtures were incubated at 37° C. for 1 hr. Then, 100 μl of incubated mixture was inoculated in an agar medium, cultured at 37° C. for 12 hrs. and the number of colonies were counted with naked eye.

The test system of assay [2] is Staphylococcus aureus. The description is as above. To be noted: 50 μl of 40 μg/ml polypeptide added to 450 μl of 5,000 CFU/ml suspension in 10 mM phosphate buffer pH 7.0; 37° C. 1 hr. How it is done:
as §1, with “In addition, Staphylococcsii aureus” for “Escherichia coli”, “5,000” for “10,000”, “4]),” for “4]) (SEQ ID NO:3),”

Assay [3] deals with Escherichia coli. In words: Determination of antimicrobial activity (colony count after 1 hr incubation in hypotonic buffer). To be noted: 10 mM phosphate buffer pH 7.0 (hypotonic), 37° C. 1 hr, then agar culture 12 hrs. On the procedure:
(§2) Various microorganisms shown in Table 3 were suspended in 10 mM phosphate buffer, pH 7.0 (hypotonic solution). In 900 μl of 5,000-10,000 CFU/ml suspension, 100 μl of 2-fold serial diluted polypeptide solution at a concentration of 20 μg/ml obtained by Example 1 was added and incubated at 37° C. for 1 hr. Then, 100 μl of incubated mixture was inoculated in an agar medium, cultured at 37° C. for 12 hrs. and the number of colonies was counted with naked eye (see Infections and Immunity, 42, 10-14 (1983)). CFU means colony forming unit.

The next assay deals with S. minnesota Re. The assay is described as above. The note with it: 10 mM phosphate buffer pH 7.0 (hypotonic), 37° C. 1 hr, then agar culture 12 hrs. How it is done:
as §2

For a further assay, the system named is Candida albicans. The assay is described as above. The note with it: 10 mM phosphate buffer pH 7.0 (hypotonic), 37° C. 1 hr, then agar culture 12 hrs. On the procedure: as §2
The next assay concerns Klebsiella pneumoniae. Described as above. The note with it: 10 mM phosphate buffer pH 7.0 (hypotonic), 37° C. 1 hr, then agar culture 12 hrs. How it is done:
as §2

Assay [4] relates to Salmonella typhimurium LT2(S). Described as above. To be noted: 10 mM phosphate buffer pH 7.0 (hypotonic), 37° C. 1 hr, then agar culture 12 hrs. How it is done: as §2
The test system of assay [5] is Staphylococcus aureus. Described as above. To be noted: 10 mM phosphate buffer pH 7.0 (hypotonic), 37° C. 1 hr, then agar culture 12 hrs. On the procedure:
as §2

Ends that are not written are not given here.

In the case of “T3: Trypsin degradation fraction of the Example 1 polypeptide, eluted at 27 min; 42 residues, C-terminal defensin-like part (ASSDNHSCAGNRGWCRSKCFRHEYVDTYYSAVCGRYFCCRSR; not fully specified (bridges); cysteine pairing not given here)”, the “inhibited the growth of Escherichia coli at a rate of” value in the assay with Escherichia coli [1] is on record as “about 90%”. Moreover, the “inhibited the growth of Staphylococcus aureus at a rate of” value with Staphylococcus aureus [2] is listed as “about 30%”.

B1: polypeptide obtained by Example 1: Purified S5 fraction polypeptide from small granules of horseshoe crab hemocytes; 79 amino acids, about 8,200 by SDS-PAGE (protein)
chain: NPLIPAIYIGATVGPSVWAYLVALVGAAAVTAANIRRASSDNHSCAGNRGWCRSKCFRHEYVDTYYSAVCGRYFCCRSR
Consider B1, for which, in the assay with Escherichia coli [3], the “IC50 in hypotonic buffer” value amounted to 2.5 µg/mL. Moreover, the “IC50 (μg/ml) (hypotension)” value in the assay on S. minnesota Re is below 0.6 µg/mL; in the assay with Candida albicans, 10 to 20 µg/mL; with Klebsiella pneumoniae it was below 1.3 µg/mL; in assay [4], 20 µg/mL; in the assay on Staphylococcus aureus [5] it was below 2.5 µg/mL. The “inhibited the growth of Escherichia coli at a rate of” value in the assay on Escherichia coli [1] is reported as at least 95%. Further, the “inhibited the growth of Staphylococcus aureus at a rate of” value in the assay with Staphylococcus aureus [2] is reported as “almost completely”.
